Assay results taken from a protein production outcome set (Wang et al. 2014).

Assay: label from the status in PepcDB records

Row | Sequence | protein production
1 | MKRCDRMNYREEYEKKLISPEEAAGLVESGMHIELGGAANTALIIDKYLAKRKDELENVKVGTFIDLAHYEFLKADPNGEVFEWSSGFLYRPVRKTSKELGPCVFRPNLYHDVPKIVREFSKDYDPIDIAYLVTTPMDKHGYFNFGLTCSHMKALAEVAEKVVVVVKENMPWVNGGYDECIHISEVDYIVEDNEMPVPFIPFSIPPTKEDEMIAENILNAETKDGRKLIQDGSTLQVGIGGLPDTVVKMLKEGGYKNLGVHTEMMGDGTLELIEEGVVTNDQKRLDRGKSVFTFALGSLKLYEYLDRNPEVATYPVDYTNDPFIIAQQPKMFSLNQAAEADLMGQINSEQMGLISPTGKLYQVSGTGGQLDFVMGCLFSRDRQGFSILAMYSTHNGTSRIKPILPPGAAVTVPRSMVQVVATEWGVAYLKGLTVKERAIAMIHLAHPDHREWLEKEAEKLGLLPPNYTIPAGKPDYLLYKRDLEHHHHHH | not failed
2 | GSFQYVPVQLQGGAPWGFTLKGGLEHCEPLTVSKIEDGGKAALSQKMRTGDELVNINGTPLYGSRQEALILIKGSFRILKLIVRRRN | not failed
3 | MKKIEIFDPAMCCPTGLCGTNINPELMRIAVVIESLKKQGIIVTRHNLRDEPQVYVSNKTVNDFLQKHGADALPITLVDGEIAVSQTYPTTKQMSEWTGVNLD | not failed
4 | MTFCFWMRDTCHQRRRADIGSANADRYWEEDMTGTPRLLESRWDDAYAQTLDEPGKLLYRSNLLGADKRITNYGGGNTSAKVLEIDPLTGEKVRVMWVKGSGGDVGTIKLDGFATLYLEKLEALKGIYKGVEDEDRMVGFLPHCTFNLNPRAASIDTPLHGFVPFDHVDHMHPDAIIAIAASKNSKELTQQIFGDDIGWLPWRRPGFQLGLDLEAFVKANPTAKGVVLESHGLFTWDDDAKACYELTLAIINKAIEWFAAETEGKTIFGGALAKSLPVAERRAIAARLMPEIRGRIGREERKLGHFDDQDAVLEFVNSKDLKPLGNLGTSCPDHFLRTKIRPLILDLDTAKPDVDALTAGLDKALEAYRADYSRYYEACRHDNSPKMRDPNPVIFLIPGVGMLSFAKDKATARIAGEFYVNAINVMRGASTVSEYQGLPEQEAFDIEYWLLEEAKLQRMPKPKSLAGRVAFVTGGAGGIGRATAERLADEGACVVLADIDEAALEAAKGDFVKRYSGDAVRTVKLDVTQEDDVISAFAEASVEFGGVDILVSNAGIASSAPVEDTTLAMWNKNIDILATGYFLVSREAFRLLRRQNLGGNIVFVASKNGLASSPNASAYCTAKAAEIHLARCLALEGAEAGIRVNTVNPDAVLRGSKIWNGEWREQRAASSKIEVTDLEEHYRKRSMLKLNVFPEDIAEAIYFLASDASAKSTGNIINVDAGNAQSFTR | failed
5 | AIAITGETEPACVEDASQLAEQRNGAPVMEAGCAAVPVEANATKRGYWRQRTLHSWFIGRKPQRTCIAVDIDEVLAFFVPELCAFHNKRYGTRLQATDFHSYRFAEVWGGTDTDAIRKVHEFFRTPAFQELQPIPGAKQVLQSRLARFRFVVVTSRQLVIEQETRAWLDKHFSGIFEAIYLGNQWALHPNGEHGTGVGSAAQEPQRLFANRRRKSQVCKACGAAVLIDDLPHNLLDCSENGVFGVLFDFQGQYGWSKSPAFESKDIAVVHSWEAVGELLDRL | failed
6 | MKISTKDLVLCALFAAISCVLAQISIQLPFSPVPFTMQVMAVYLAGIILGAKKGFISQLVYVVLGAIGAPVFANFTGGVGAILGPAGGFIIAFPFMALIVGCVADKCRTKAYIIISMVLASVVCYVFGALWLVLVTKISFALAIKTAVLPFILFDMLKIIIVSIIGINIRSRIISGGLA | failed
7 | MFRRTLPVLAAAVGLAAAAAGPATADDVPADRLPGHRVLDVMTFNIHHAQGTDDVLDLRRVANVIRKSGADVVGLQEVDKHYSARSDWADQPAELAELLGYHVVFGANIDNSPPAPGGHRVQYGTAILSRYPITASDNTWLYKSPGQEQRGLLHATLDVHGKKVEFYNTHLAAGSQADRLQQTAQVVDLIGTRKPGILVGDFNALPAAPESRPLQNAYTDAWAKSLHARGDGATYPAQSPTERIDLIYATRRVTPLVAQVLKDDPAASDHRPLLGKVLV | failed
8 | MKIIDKLYEKVSKNGFVCIGLDSSIDYIPENMKAGKSVSEALFSYNKEIIDQTYDVCAIYKLQIAYYESYGIEGMIAYRDTLSYLREKDLLSIGDVKRSDIAASAKMYAKAHFEGDFETDFITLNPYMGMDSIEPYEEYIEKGDKGVFVLLRTSNPGAKDFEVLPVDGEEFFYKVGDKMRELNEKYIGKSGFGPIGLVVGATHSEEVEKIRKRYDKMFFLIPGFGAQKADSMNVYKLLEGLNGGVVNSSRAILKNWQNYEDGSEKVGYYARKKAIETYEEIKANEVL | not failed
9 | MCPAVVPDDPHALTAPSPWVVRWAAPLPAGARVLDVACGSGRHVRWLAARGLRVTGIDRDADALSGLSEAADTLIADIEDGLWPLPAEAVFDAVVVTNYLYRPLWPRLLACVAPGGRLIYETFAVGNETVGKPSNPAFLLAPGELLEAVRGQLRVIGYEDGFIAAPREAYVQRLCAVRESAGAQARRYAL | failed
10 | MSDAHKSDLYLVLVTLLAAIGWMLSKEAVLMMPPLMFMAARFLIAGAFLALLALPSLLRLSRDQILRSLGVGFVFGIAMTCWIMGLYHTDSMGEGAFLTSLGVVIVPIIARTVFGEQQPLSTWLAIPIAVAGLALLSLENGFRPDPGQLYFVLAATIFALYFTLNTRAANQRIVVDKQGKTVEKKKVPALPLTAIALLTVGTVTLAESAISERWTHILTNPEPMLYVWVLASALIATAARFLLQTYAQSLSVNSHGVVILVLEPVWVAVFAVAWFGETMTLLQIAGCALIFAALLVNRWNALSRAIKALMKAKNPRQRG | failed
11 | MIMMKRYKKILLTGVLSALSCSFVHAQELYKNENAPVHERVMDLISRLTVEEKISLLRATSPGIPRLGIDKYYHGNEALHGVVRPGRFTVFPQAIGLAATWNPELQKRVATVISDEARARWNELDQGREQKEQFSDVLTFWSPTVNMARDPRWGRTPETYGEDPFLSGIMGTAFVNGLQGDDPHYLKIVSTPKHFAANNEEHNRFVCNPQISEKQLREYYFPAFEMCVKEGKAASIMSAYNALNDVPCTLNPWLLQKVLRQDWGFQGYVVSDCGGPALLVNAHKYVKTKEAAATLSIKAGLDLECGDDVYDGPLLNAYKQYMVSDADIDSAAYHVLTARMKLGLFDSGERNPYTKISPSVIGSKEHQQIALDAARQCVVLLKNQKNRLPLNADKLKSIAVVGINAGKCEFGDYSGAPVVEPVSILQGIRNRVGDRVKVVYAPWKSAADGLELIQGENFPEGLQAEYFDNTRLEGTPRVRKESWINFEPANQAPDPFLPKSPLSVRWTGKLKPTVSGRYTFSFTSDDGCRLSINNQMLIDAWQAHAVSTDSASIYLEAGKEYQLKAEYYDNRDYAIAKLQWKVPQIGKATRLDLYGEAGKAVRECETVVAVMGINKSIEREGQDRYDIQLPADQREFLQEIYKVNPNIIVVLVAGSSLAINWMDEHIPAIVNAWYPGEQGGTAVAEVLFGDYNPAGRLPLTYYKSLDELPPFDDYDITKGRTYKYFKGDVLYPFGYGLSYSSFTYSDLQVKDGGGEVTVSFRLKNTGKRNGDEVAQVYVRIPETGGIVPLKELKGFRRVPLKSGESRRVEIKLDKEQLRYWDVEKGQFVVPKGAFDVMVGASSKDIRLQTVIDL | failed
12 | WKPELDELARRENFAQQMGGIDKVKRQHDQGRLTVRERIDRLSDAGSFHEIGAVAGLGEYDANGELINLTPANCVFGRAKIDGRTVVVVGDDFTVRGGSADASIHAKPQMAEEMAHDYRLPIIRVIEGSGGGGSVRTIESKGAANLPGGVDGTRWYWYTTAN | failed
13 | MRTRIERTEEMVEQLPLVSVLIPTYNRPSYFEKALCSVLEQTYPNIEIIVGDDSTNDETEKLLQKYLCDHSNIIYIKNRSTLGQFENALMLFNEANGEYINFLMDDDVFHVNKIEKMMKYFFNDLDNEIKLVTSHRQVIDDKGKELRHIYSTVRLFEEDTIIEGTELGNKVIVDQKNYIGEPTTVLFRKNDLQEPYGIFDKRRYLCNVDIASWLSLLSKGKAVYIAETLSYFRLHPDQQLNESNKMMDGLEDFSHSIIAGEQYGFLSTEKELDKAITNFLDYARRIVPSSILYTLDYYQKIRAKKINIEKKKQHINNNSSLPKVSILIPAYNRPYYLELALNSALNQTYENIEIIISDDSTNNEVNAMIQPYLREYECITYVKNETPLVAENFNKCVELANGDYMNFLLDDDLFHHEKIERMMKYFLTLENISFVTSYRELIDENGEILPPSTLNMKIAKETTLFEGKELGNYMLKNLKNVVGEPTTVLFNRDLFDGKFGYFKGKAYSAINDIATWLDMMRKGKVVYIHEPLSYFRQHSGQNQKQMHFILMTIEEWIELIIDAYNSGFLSSESEYKESLSYCLENAGFIVKDAVRNGELDQIYNEKIKKGLNKLVAHMFEKESCYCQYCNQQFEKFSPWPAHYDFPKYKFEMWNKDTGICPVCNSMDRERLYRAYIETETDLLNRNYTMLHIAPEAKLRDWFNEYKNITYVCGDLEPKDPLMKEIDVTRITYDSNTFDVILCSHVLEHVPDDDKAMRELYRVLKPNGWGIIQVPIVMNVDFIIENELIVTPQLRKLAFGQEDHVRIYNQSGFIQRLMNAGFKVELYNIAEKQGMKGARKFGLSETDMLYIVRK | failed
14 | MMRMKVKVVVNGKEYEVEVEEVMPGKFRVTLEGETYEVETSAGFVTSPKQVQVPTPAPTPAPAPTPTPAPAPSSKTVVSENVVSAPMPGKVLRVLVRVGDRVRVGQGLLVLEAMKMENEIPSPRDGVVKRILVKEGEAVDTGQPLIELG | not failed
15 | MRMILMFDMPTETAEERKAYRKFRKFLLSEGFIMHQFSVYSKLLLNNTANNAMIGRLKVNNPKKGNITLLTVTEKQFARMVYLHGERNTSVANSDSRLVFLGDSYDQDLEHHHHHH | failed
16 | MVRVDQNLFNEVMYLLDELSQDITVPKNVRKVAQDSKAKLSQENESLDLRCATVLSMLDEMANDPNVPAHGRTDLYTIISKLEALS | not failed
17 | MYDMLKFEFSDRFLLFSYFVLIMFIGSLLLMLPISWEGDGKLAYIDALFTAVSAVSITGLTTVKMEGFSTFGFILIMLLIQLGGLGFISITTFYLLIPKKKMNLTDARIIKQYSLSNIEYNPIRILKSILFITFSIEMIGLILILICFKLRGVNISFLEALFTTISAFCNAGFSMHSESIYAWRDVPEAIVVVSILIICGGLGFMVYRDVNNTIKNKKKLSLHAKIVFSLSFFLIIIGAILFFFTEMHKLKAGYSMSTLIFNSIFYSISTRTAGFNYLDNSLISGRTQIISLPFMFIGGAPGSTAGGIKITTFFLIVLAVVKNQNGNGYIIGSYKVSIDSIRFALLFFARAIFILSFSFFMLLFFEGGSGNWKVIDLGYEVFSAFGTVGLSVGVTQDLSFWGKVIIIFTMFAGRIGLFSMAVFVSRKSRFEEFTRPRQDILVG | failed
18 | MTPGTIFLSSQVLMPSEDDTKRFHLAEGQELFYLERVRTADGQPIVYCIDKIPMNILPNSFSHQQESMFDLLEKNSGSVISYAVTDIEPIGYHDTISPVLECDPETALLLLKQTHYDQHDKPVLYSLNYFRA | not failed
19 | MSTYYNDHLAAAEKDISSSNFCNLVDASVMLYDEEHRDLLPKKVNSRCQAKTKKQEKESDKRFFDLFPKKRRTSVVTVRNPEQNQQNLHRVSTSSSLLDLNTIPGDSSDPRNELQGLLSSSSSSFLGDYERKTPQNASSSSTLLAEYNTEMANPPNPNSETSLKRKHSDSEPKKAKTPYSWKGREAPEWLVKMMGTMQGSEGPRLIYEKTLTETDVKPVQSRLLMPFNTLIRNDFLTPVELRILLELEDDTDGVGATLVDPWEVKWGVILKKREMKKYSGKGSLNYAIICGWNDIVEANVLEKDDDISIWSFRRGRNGILSFALVLPPPPDMA | failed
